In general, EC50 refers to the concentration at which the effect is half-maximal. The IC50 is the point on the concentration scale where inhibition reaches its midpoint.

The values below come from patent US20210214435A1 (MorphoSys, published 2021).

The target in experiment [1] is T1, human GPVI (full-length) expressed on stably transfected CHO cells (human, UniProt Q9HCN6 21-339).
T1 chain: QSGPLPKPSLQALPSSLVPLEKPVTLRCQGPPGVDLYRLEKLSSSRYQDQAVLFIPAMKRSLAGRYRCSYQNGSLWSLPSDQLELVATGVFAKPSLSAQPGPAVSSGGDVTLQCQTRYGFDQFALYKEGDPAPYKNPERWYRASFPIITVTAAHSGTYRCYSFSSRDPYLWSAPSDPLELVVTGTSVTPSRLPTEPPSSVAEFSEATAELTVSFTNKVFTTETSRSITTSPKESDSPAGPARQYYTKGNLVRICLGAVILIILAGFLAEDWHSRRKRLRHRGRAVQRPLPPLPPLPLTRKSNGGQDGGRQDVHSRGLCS
As to the kind of experiment: Cell ELISA (MSD) on CHO cells expressing GPVI. How it is done:
(§1) CHO cells stably transfected with either human, cynomolgus monkey, or mouse GPVI (SEQ ID NO: 1, SEQ ID NO: 2, SEQ ID NO: 3, respectively and as described in Example 1) were seeded at a density of 5000 cells/well in growth medium on a 96 well high bind plate (Meso Scale Discovery) and cultivated overnight at 37° C. and 5% CO2. Cells were blocked with PBS supplied with 5% BSA and then incubated with Fab (comprising a modified heavy chain constant region) serially diluted to concentrations between 300 nM to 5 pM in PBS supplied with 0.5% BSA. After washing, bound Fab was detected using ECL-conjugated detection antibody directed against human F(ab′)2 fragment (Jackson Immuno Research). MSD read buffer (Meso Scale Discovery) was added to cells prior to readout in a Sector Imager6000 (Meso Scale Discovery). EC50 values were calculated using Prism 5 software (GraphPad).
(An ELISA detects its analyte on a solid surface through an enzyme-linked reagent.)

Experiment [2] concerns the target T2, cynomolgus monkey GPVI (full-length) expressed on stably transfected CHO cells (cynomolgus monkey, UniProt Q9HCN6 21-339 (human entry)).
T2 chain: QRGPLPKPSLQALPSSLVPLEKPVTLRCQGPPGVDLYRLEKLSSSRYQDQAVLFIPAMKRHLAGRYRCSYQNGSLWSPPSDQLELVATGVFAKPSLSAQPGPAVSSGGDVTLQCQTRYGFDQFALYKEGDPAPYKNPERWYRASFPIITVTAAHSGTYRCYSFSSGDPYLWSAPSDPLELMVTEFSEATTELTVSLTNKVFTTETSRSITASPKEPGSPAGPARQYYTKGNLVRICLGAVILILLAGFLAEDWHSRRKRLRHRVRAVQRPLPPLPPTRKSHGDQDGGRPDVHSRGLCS
Description: Cell ELISA (MSD) on CHO cells expressing GPVI. How it is done:
as §1

The target in experiment [3] is T3, mouse GPVI (full-length) expressed on stably transfected CHO cells (mouse, UniProt P0C191 22-313).
T3 sequence: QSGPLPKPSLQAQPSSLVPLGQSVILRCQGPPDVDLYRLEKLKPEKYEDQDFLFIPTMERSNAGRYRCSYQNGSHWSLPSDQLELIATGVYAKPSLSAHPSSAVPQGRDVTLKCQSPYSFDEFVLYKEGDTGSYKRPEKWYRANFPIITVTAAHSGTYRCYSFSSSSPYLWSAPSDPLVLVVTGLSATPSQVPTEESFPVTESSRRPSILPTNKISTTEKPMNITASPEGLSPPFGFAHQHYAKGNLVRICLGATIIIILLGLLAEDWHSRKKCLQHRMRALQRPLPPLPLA
Description: Cell ELISA (MSD) on CHO cells expressing GPVI. How it is done:
as §1

For experiment [4], the target named is T4, cynomolgus monkey GPVI extracellular domain fused at its C-terminus to human IgG1 Fc (GPVI-Fc) (cynomolgus monkey; human).
T4 construct: also called cyGPVI-2; cyGPVI
Description: Competition ELISA (MSD): cynomolgus GPVI-Fc preincubated with Fab, then on coated CRP-XL (competitor). How it is done:
(§2) 1 or 10 μg/ml of recombinant GPVI collagen substrate (crosslinked collagen-related peptide (CRP-XL (Anaspec, Inc.), rat-tail collagen (Enzo Life Sciences) or VitroCol (Advanced BioMatrix, Inc.) was coated on a MSD-plate over night at 4° C., washed with PBST, blocked for 1 h at RT with PBS supplemented with 0.05% Tween-20 and 3% skim milk powder, and subsequently washed again with PBST. Purified recombinant GPVI antigens (human, cynomolgus monkey or mouse GPVI as prepared in Example 1) diluted in PBS and varying concentrations of Fab (comprising a modified heavy chain constant region) diluted in PBS (final concentration range 200-0.3 μg/ml) were incubated in a polypropylene plate for 30 min at RT. Fab/GPVI-Fc mixture was added to coated collagen substrate for 1 h at RT. After washing with PBST, bound GPVI form different species was detected using an ECL-conjugated detection antibody directed against human Fc (Jackson Immuno Research) for 1 h at RT. MSD read buffer (Meso Scale Discovery) was added prior to readout in a Sector Imager6000 (Meso Scale Discovery).

Experiment [5] deals with T5, mouse GPVI extracellular domain fused at its C-terminus to human IgG1 Fc (GPVI-Fc) (mouse; human).
T5 construct: also called mGPVI; mouse GPVI-Fc
As to the kind of experiment: Competition ELISA (MSD): mouse GPVI-Fc preincubated with Fab, then on coated VitroCol (competitor). How it is done: as §2

For experiment [6], the target named is T4, cynomolgus monkey GPVI extracellular …. As to the kind of experiment: Competition ELISA (MSD): cynomolgus GPVI-Fc preincubated with Fab, then on coated rat-tail collagen (competitor). How it is done:
as §2

Experiment [7] concerns the target T5, mouse GPVI extracellular domain fused …. Description: Competition ELISA (MSD): mouse GPVI-Fc preincubated with Fab, then on coated rat-tail collagen (competitor). How it is done:
as §2

The target of experiment [8] is T4, cynomolgus monkey GPVI extracellular …. As to the kind of experiment: Competition ELISA (MSD): cynomolgus GPVI-Fc preincubated with Fab, then on coated VitroCol (competitor). How it is done:
as §2

Experiment [9] deals with T5, mouse GPVI extracellular domain fused …. Description: Competition ELISA (MSD): mouse GPVI-Fc preincubated with Fab, then on coated CRP-XL (competitor). How it is done: as §2

B1: Fab #2 comprising a modified heavy chain constant region (Fab, V domains shown)
VH: QVQLVESGGGLVKPGGSLRLSCAASGFSFSDHYMSWIRQAPGKGLEWVSSVGSEGKFIDYAASVKGRFTISRDNAKNSLYLQMNSLRAEDTAVYYCARHYREFRWHYYYFDYWGQGTLVTVSS
VL: QSVLTQPPSVSGAPGQRVTISCTGSSSNIGAGYDVHWYQQLPGTAPKLLIYGNSNRPSGVPDRFSGSKSGTSASLAITGLQAEDEADYYCQSHDLGAHVWVFGGGTKLTVLG
notes: Human Fab from the Ylanthia library; produced in HKB11 cells; also called Fab #2 mod; HC
As for B1, the EC50 in experiment [1] worked out at 0.78 nM; in experiment [2], 1.06 nM; in experiment [3], 8.28 nM. The IC50 in experiment [4] came to 7.9 nM; in [5] it was 4.3 nM; in experiment [6], 7.1 nM; in experiment [7], 5.7 nM; in experiment [8], 4.3 nM; in experiment [9] it was 12 nM. For the same molecule, the “Max. inhibition at 200 nM Fab [%]” value in experiment [4] is 100%; in experiment [5] it was 99%; in experiment [6] it was 100%; in experiment [7], 99%; in experiment [8], 100%; in experiment [9], 99%.

B2: Fab #3 comprising a modified heavy chain constant region (Fab, V domains shown)
VH: QVQLVESGGGLVKPGGSLRLSCAASGFSFGDYYVSWIRQAPGKGLEWVSAIGGSGSAVQYAESVKGRFTISRDNAKNSLYLQMNSLRAEDTAVYYCARHYREFRWHYYYFDYWGQGTLVTVSS
VL: B1 VL
notes: Human Fab from the Ylanthia library; produced in HKB11 cells; also called Fab #3 mod; HC
With B2, the EC50 in [1] was determined as 0.77 nM; in [2], 1.06 nM; in experiment [3], 3.74 nM. Moreover, the IC50 in experiment [4] came to 9.1 nM; in experiment [5] it was 3.3 nM; in [6] it was 7.6 nM; in experiment [7], 5.3 nM; in experiment [8], 4.7 nM; in experiment [9] it was 8.1 nM. In addition, the “Max. inhibition at 200 nM Fab [%]” value amounted to 100% in [4]; 100% in experiment [5]; 99% in experiment [6]; 99% in [7]; 100% in experiment [8]; 100% in experiment [9].

B3: Reference Control Antibody RefFab #1 (humanized GPVI antibody of WO2011073954A2, SANOFI) (Fab, V domains shown)
VH: EVQLLESGPGLVAPSGSLSITCTVSGFSLTGYGVNWVRQPPGKGLEWLGMIWGDGSTDYQSTLKSRLSISKDNSKSQVFLKMNSLRTDDTARYYCARDLPMDYWGLGTSVTVSS
VL: DIQMTQSPSSLSASVGGRVTITCKASQDINKYIAWYQHKPGKGPSLLIHYTSTLQPGVPSRFSGSGSGRDYSFSISNLQPEDIATYYCLQYANLLTFGGGTKLEIKR
notes: Cloned into mammalian Fab expression vectors; a glycine-serine linker (G4S)2 was added to the C-terminus of the Fab heavy chain
In the case of B3, the figures for the EC50 in experiment [1] and in experiment [2] were 2.8 nM and 2.09 nM, respectively. Further, the IC50 in experiment [4] is 9.5 nM; in experiment [6], 8.8 nM; in experiment [8] it was 5.5 nM. For the same molecule, the “Max. inhibition at 200 nM Fab [%]” value was 100% in experiment [4], 99% in [6] and 100% in experiment [8].

B4: Fab #1 comprising a modified heavy chain constant region (Fab, V domains shown)
VH: QVQLVQSGAEVKKPGASVKVSCKASGYTFTSHYMHWVRQAPGQGLEWMGLIEPSEGETEYAQRFQGRVTMTRDTSTSTVYMELSSLRSEDTAVYYCARDSSRSYPLGFDIWGQGTLVTVSS
VL: QSVLTQPPSVSAAPGQKVTISCSGSSSNIGNNYVSWYQQLPGTAPKLLIYDNNKRPSGIPDRFSGSKSGTSATLGITGLQTEDEADYYCAAWDFRSSRWVFGGGTKLTVLG
notes: Human Fab from the Ylanthia library; produced in HKB11 cells; also called Fab #1 mod; HC
Take B4: the EC50 turned out to be 0.89 nM in experiment [1] and 0.74 nM in experiment [2]. For the same molecule, the IC50 in experiment [4] was found to be 11.5 nM; in [5] it was 9.1 nM; in experiment [6], 9.6 nM; in [7] it was 17.2 nM; in experiment [8], 9.7 nM; in experiment [9] it was 26.4 nM. For the same molecule, the “Max. inhibition at 200 nM Fab [%]” value in experiment [4] was 59%; in experiment [5], 96%; in experiment [6], 86%; in experiment [7] it was 89%; in experiment [8] it was 84%; in experiment [9] it was 77%.

B5: Fab #4 comprising a modified heavy chain constant region (Fab, V domains shown)
VH: QVQLVQSGAEVKKPGASVKVSCKASGGAFTSSYMHWVRQAPGQGLEWMGIIEPTGASTLYAQRFQGRVTMTRDTSTSTVYMELSSLRSEDTAVYYCARTGIALPLGFDLWGQGTLVTVSS
VL: QSVLTQPPSVSAAPGQKVTISCSGSSSNIGNNYVSWYQQLPGTAPKLLIYDNNKRPSGIPDRFSGSKSGTSATLGITGLQTEDEADYYCAAWSTRFRWVFGGGTKLTVLG
notes: Human Fab from the Ylanthia library; produced in HKB11 cells; also called Fab #4 mod; HC
Turning to B5, the EC50 in experiment [1] was determined as 0.78 nM; in experiment [2] it was 0.8 nM; in experiment [3], 0.93 nM. In addition, the IC50 in [4] turned out to be 11.3 nM; in experiment [5], 6.7 nM; in experiment [6], 9.1 nM; in experiment [8], 8.1 nM; in [9], 10.6 nM. Also, the “Max. inhibition at 200 nM Fab [%]” value in [4] was determined as 51%; in experiment [5], 94%; in experiment [6] it was 83%; in [7] it was 87%; in experiment [8] it was 91%; in [9], 67%.
